The values that follow come from patent publication US20240076403A1.

Assay [1] has as its target human HER2-His protein (Acro, Cat. No. HE2-H5225) (human) (UniProt P04626). Kind of assay: ELISA, 1 nM. (In general: In an ELISA, binding on a coated surface is turned into a signal by an enzyme label.)
Assay [2] has the same target. Kind of assay: ELISA, 1 nM. This is another data set of the same source.
Assay [3] has the same target. Put plainly: ELISA, 10 nM.
Assay [4] deals with monkey HER2-His protein (Sino Biological, Cat. No. 90295-C08H) (monkey). Put plainly: ELISA, 10 nM.
Assay [5] concerns the target human HER2-His protein (Acro, Cat. No. HE2-H5225) (human) (UniProt P04626). Kind of assay: ELISA, 10 nM. This is another data set of the same source.
For assay [6] the target is unchanged. Put plainly: ELISA, 0.1 nM.
Assay [7] addresses monkey HER2-His protein (Sino Biological, Cat. No. 90295-C08H) (monkey). Kind of assay: ELISA, 0.1 nM.
Assay [8] deals with human HER2-His protein (Acro, Cat. No. HE2-H5225) (human) (UniProt P04626). Put plainly: ELISA, 100 nM.
The target of assay [9] is monkey HER2-His protein (Sino Biological, Cat. No. 90295-C08H) (monkey). Put plainly: ELISA, 100 nM.
Assay [10] concerns the target human HER2-His protein (Acro, Cat. No. HE2-H5225) (human) (UniProt P04626). Kind of assay: ELISA, 0.01 nM.
For assay [11], the target named is monkey HER2-His protein (Sino Biological, Cat. No. 90295-C08H) (monkey). Kind of assay: ELISA, 0.01 nM.
Assay [12] concerns the target human HER2-His protein (Acro, Cat. No. HE2-H5225) (human) (UniProt P04626). Kind of assay: ELISA, 0.001 nM.
For assay [13] the target is unchanged. Kind of assay: ELISA, 0.001 nM. This is another data set of the same source.
The target in assay [14] is monkey HER2-His protein (Sino Biological, Cat. No. 90295-C08H) (monkey). Put plainly: ELISA, 0.001 nM.
Assay [15] concerns the target human HER2-His protein (Acro, Cat. No. HE2-H5225) (human) (UniProt P04626). Put plainly: ELISA, 0.0001 nM.
Assay [16] deals with monkey HER2-His protein (Sino Biological, Cat. No. 90295-C08H) (monkey). Put plainly: ELISA, 0.0001 nM.
For assay [17], the target named is human HER2-His protein (Acro, Cat. No. HE2-H5225) (human) (UniProt P04626). Put plainly: ELISA, 0.00001 nM.
The target of assay [18] is monkey HER2-His protein (Sino Biological, Cat. No. 90295-C08H) (monkey). Put plainly: ELISA, 0.00001 nM.
For assay [19], the target named is human HER2 protein on cells (SK-BR-3 endogenous; CHO-K1-human HER2 recombinant) (human) (UniProt P04626). Kind of assay: FACS on SK-BR-3 cells.
The target is the same in assay [20]. Put plainly: FACS on CHO-K1-human HER2 cells.
Assay [21] deals with monkey HER2-His protein (monkey). Kind of assay: ELISA, coated monkey HER2-His.
Assay [22] concerns the target monkey HER2 on HEK293T-monkey-HER2 cells (monkey). Kind of assay: FACS on HEK293T-monkey-HER2 cells.

Consider hIgG1 (IgG subtype control) (antibody), for which the OD450 in assay [1] came out at 0.06; in assay [2], 0.05; in assay [3] it was 0.06; in assay [4], 0.07; in assay [5], 0.05; in [6] it was 0.05. The OD450 in [7] was 0.05; in [8] it was 0.06; in assay [9], 0.12; in assay [10], 0.06; in [11], 0.08; in assay [12] it was 0.06. For the same substance, the OD450 in assay [13] was 0.05; in [14] it was 0.05; in [15] it was 0.06; in assay [16], 0.06; in [17], 0.05; in assay [18], 0.05. In addition, the Max MFI in [19] amounted to 73; in [20], 71.
In assay [21], hIgG1 (antibody) yielded an OD450 nm at 0.0001 nM antibody of 0.06 OD450 nm, an OD450 nm at 0.001 nM antibody of 0.09 OD450 nm, an OD450 nm at 0.01 nM antibody of 0.05 OD450 nm and an OD450 nm at 0.1 nM antibody of 0.06 OD450 nm. In [21], this substance came in with an OD450 nm at 1 nM antibody of 0.05 OD450 nm, an OD450 nm at 10 nM antibody of 0.05 OD450 nm and an OD450 nm at 100 nM antibody of 0.09 OD450 nm. In assay [22], this substance registered a Max MFI of 127 MFI.
